From patent US5082772A, “Process for preparing deacetylcephalosporin C” (priority 1988, dated 1992)
Where “and” joins values, the source holds several entries; their conditions need not be identical. Identical values can stand only once.

Legend:
[1] = Stability (half-life) of native enzyme; type: physicochemical, Streptomyces clavuligerus
Text: The purified native enzyme obtained from cell-free extracts of S. clavuligerus can be partially stabilized by phenylmethylsulfonyl fluoride and ethanol.

[2] = Isoelectric points of purified enzyme; type: physicochemical, Streptomyces clavuligerus; details: two distinct points
[3] = target: T1, recombinantly produced DAOC synthase (Streptomyces clavuligerus, UniProt P18548); assay: Kinetics of recombinant enzyme (Lineweaver-Burk); type: biochemical; details: pH 7.0, 50 mM HEPES buffer, 36° C.
T1 construct: made in house; host or cells: Escherichia coli K12 JM109 (plasmid pOW382)
Protocol: The kinetics of the native enzyme and recombinant enzyme were determined under the optimal reaction conditions for the enzyme, i.e., at pH 7.0 in 50 mM HEPES buffer at 36° C.

B1: purified native enzyme: DAOC synthase obtained from cell-free extracts of S. clavuligerus (protein, UniProt P18548 1-311, looked up)
Deacetoxycephalosporin C …: MDTTVPTFSLAELQQGLHQDEFRRCLRDKGLFYLTDCGLTDTELKSAKDLVIDFFEHGSEAEKRAVTSPVPTMRRGFTGLESESTAQITNTGSYSDYSMCYSMGTADNLFPSGDFERIWTQYFDRQYTASRAVAREVLRATGTEPDGGVEAFLDCEPLLRFRYFPQVPEHRSAEEQPLRMAPHYDLSMVTLIQQTPCANGFVSLQAEVGGAFTDLPYRPDAVLVFCGAIATLVTGGQVKAPRHHVAAPRRDQIAGSSRTSSVFFLRPNADFTFSVPLARECGFDVSLDGETATFQDWIGGNYVNIRRTSKA
half-life ([1]; not stabilized): 20 h
half-life ([1]; stabilized by phenylmethylsulfonyl fluoride and ethanol): 48 h

B2: purified enzyme: purified deacetoxycephalosporin C synthase of S. clavuligerus (protein, UniProt P18548 1-311, looked up)
Deacetoxycephalosporin C …: B1 Deacetoxycephalosporin C …
isoelectric points [2]: 5.3±0.2 and 6.1±0.2

B3: recombinant synthase: S. clavuligerus DAOC synthase (expandase) produced in recombinant E. coli and purified (protein, UniProt P18548 1-311, looked up)
Deacetoxycephalosporin C …: B1 Deacetoxycephalosporin C …
modifications: recombinant, expressed in E. coli
notes: S. clavuligerus DAOC synthase (expandase) produced in recombinant E. coli and purified
Vmax [3]: 0.432 μmol DAOC formed/min/mg protein
